We go through five molecules from patent CN113880955A (dated 2022).

For assay [1], the target named is T1, 人CD70 (human, UniProt P32970 1-193).
T1 construct: whole, on cells; also called 人类CD70; CD27L
T1 sequence (looked up): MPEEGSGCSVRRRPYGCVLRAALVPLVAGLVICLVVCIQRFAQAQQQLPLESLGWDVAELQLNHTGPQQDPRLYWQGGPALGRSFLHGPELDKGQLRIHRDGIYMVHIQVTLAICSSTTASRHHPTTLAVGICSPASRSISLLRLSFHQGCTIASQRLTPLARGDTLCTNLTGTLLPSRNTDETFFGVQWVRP
The experiment in a line: flow cytometry on CD47+CD70+ U266 cells (double positive: binding through CD70 and/or CD47).

The target of another assay is T2, 人CD47 (human, UniProt Q08722 19-323).
T2 construct: whole, on cells
T2 sequence (Q08722 19-323): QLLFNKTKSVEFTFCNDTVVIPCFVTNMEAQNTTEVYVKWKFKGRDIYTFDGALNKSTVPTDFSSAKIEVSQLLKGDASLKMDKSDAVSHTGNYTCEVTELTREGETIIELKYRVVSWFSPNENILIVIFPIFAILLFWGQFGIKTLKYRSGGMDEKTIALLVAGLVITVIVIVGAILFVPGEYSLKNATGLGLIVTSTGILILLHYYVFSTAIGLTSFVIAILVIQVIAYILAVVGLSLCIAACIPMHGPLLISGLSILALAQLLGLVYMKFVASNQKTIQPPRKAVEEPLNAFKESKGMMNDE
The description is as above.

Assay [2] has as its target T1, 人CD70. Briefly: flow cytometry on CHO cells expressing human CD70.
For assay [3], the target named is T1, 人CD70. Briefly: flow cytometry on CD47+CD70+ Raji cells.

Substitutions are numbered along the chain they refer to. Names and notes keep the numbering of the source.

B1: IMM4002 (bispecific antibody, human IgG1, kappa)
heavy: not shown
light: DIVLTQSPASLAVSPGQRATITCRASKSVSASGYSFLHWYQQKPGQPPKLLIYLASNLESGVPARFSGSGSGTDFTLTINPVEANDTANYYCQHSRELPPTFGGGTKVEIKRTVAAPSVFIFPPSDEQLKSGTASVVCLLNNFYPREAKVQWKVDNALQSGNSQESVTEQDSKDSTYSLSSTLTLSKADYEKHKVYACEVTHQGLSSPVTKSFNRGEC
notes: Made in CHO-S cells; also called 重组融合蛋白IMM4002
Consider B1, for which the binding result with 人CD70 [1] is on record as “binds”.

B2: IMM4002M (bispecific antibody, human IgG1, kappa)
heavy: not shown
light: B1 light with N85E
notes: As IMM4002, but the light chain variable region carries N85E, which removes the glycosylation site (antibody part = IMM40M); also called 重组融合蛋白IMM4002M
For the molecule B2, the binding result with 人CD70 [1] and in the assay with 人CD47 was “binds” in each case.

B3: IMM4003 (bispecific antibody, human IgG1, kappa)
heavy: QVQLVQSGAEVKKPGASVKVSCKVSGYTFTDSALHWVRQAPGKGLEWMGVISTYDGDTDYNQKFKGRVTMTEDTSTDTAYMELSSLRSEDTAVYYCARRGYYDYDWFPYWGQGTLVTVSAASTKGPSVFPLAPSSKSTSGGTAALGCLVKDYFPEPVTVSWNSGALTSGVHTFPAVLQSSGLYSLSSVVTVPSSSLGTQTYICNVNHKPSNTKVDKRVEPKSCDKTHTCPPCPAPELLGGPSVFLFPPKPKDTLMISRTPEVTCVVVDVSHEDPEVKFNWYVDGVEVHNAKTKPREEQYNATYRVVSVLTVLHQDWLNGKEYKCKVSNKALPAPIAATISKAKGQPREPQVYTLPPSREEMTKNQVSLTCLVKGFYPSDIAVEWESNGQPENNYKTTPPVLDSDGSFFLYSKLTVDKSRWQQGNVFSCSVMHEALHNHYTQKSLSLSPGK
light: not shown
notes: also called 重组融合蛋白IMM4003
Consider B3, for which the binding result with 人CD70 [2] is on record as “binds”.

B4: IMM40H (antibody, human IgG1, kappa, V domains shown)
VH: QVQLVQSGAEVKKPGASVKVSCKVSGYTFTDSALHWVRQAPGKGLEWMGVISTYDGDTDYNQKFKGRVTMTEDTSTDTAYMELSSLRSEDTAVYYCARRGYYDYDWFPYWGQGTLVTVSA
VL: DIVLTQSPASLAVSPGQRATITCRASKSVSASGYSFLHWYQQKPGQPPKLLIYLASNLESGVPARFSGSGSGTDFTLTINPVEANDTANYYCQHSRELPPTFGGGTKVEIKR
notes: IgG antibody against CD70; also called CD70抗体IMM40H; CD70单特异性抗体IMM40H
For B4, the binding result with 人CD70 [2] is listed as “binds”.

B5: Cusatuzumab (antibody, human IgG1, lambda, V domains shown)
VH: EVQLVESGGGLVQPGGSLRLSCAASGFTFSVYYMNWVRQAPGKGLEWVSDINNEGGTTYYADSVKGRFTISRDNSKNSLYLQMNSLRAEDTAVYYCARDAGYSNHVPIFDSWGQGTLVTVSS
VL: QAVVTQEPSLTVSPGGTVTLTCGLKSGSVTSDNFPTWYQQTPGQAPRLLIYNTNTRHSGVPDRFSGSILGNKAALTITGAQADDEAEYFCALFISNPSVEFGGGTQLTVLG
notes: IgG antibody against CD70, used as control
In the case of B5, the binding result with 人CD70 [3] is “binds”.
